Results taken from article PMC3537504.

Tests used:
[1] = target: MBP-αII-cardi+ (MBP fusion of repeats 18-21 of αII-spectrin with the 21-amino acid cardi+ insert) (rat); experiment: far-Western, overlay or dot blot
[2] = target: GST-βII-spectrin-1-4 (GST fusion of repeats 1-4 of βII-spectrin) (rat); experiment: SPR

| binding relative to the αII-cardi− protein (blot overlay, densitometry) [1] [fold] | Kd [2] [nM] | fold lower binding (response units at saturation) than MBP-αII-cardi− [2] [fold] | Substance |
| --- | --- | --- | --- |
| 0.5 | – | – | GST-βII-spectrin-1-4 (GST fusion of repeats 1-4 of βII-spectrin) (domain or fragment) |
| – | 0.57 | – | MBP-αII-cardi− (MBP fusion of repeats 18-21 of αII-spectrin without the cardi+ insert) (domain or fragment) |
| – | 1.09 | 2 | MBP-αII-cardi+ (MBP fusion of repeats 18-21 of αII-spectrin with the 21-amino acid cardi+ insert) (domain or fragment) |
